Reference: paper PMC3606321, “Identification and characterization of two distinct PPP1R2 isoforms in human spermatozoa” (BMC Cell Biology, 2013)

Key:
[1] = biological target: purified recombinant PPP1CC2 (UniProt P36873-2 1-337); experiment: cell-based or functional assay
[2] = biological target: purified recombinant PPP1CC1 (UniProt P36873 1-323); experiment: cell-based or functional assay
Sequence of purified recombinant PPP1CC1 (P36873 whole entry): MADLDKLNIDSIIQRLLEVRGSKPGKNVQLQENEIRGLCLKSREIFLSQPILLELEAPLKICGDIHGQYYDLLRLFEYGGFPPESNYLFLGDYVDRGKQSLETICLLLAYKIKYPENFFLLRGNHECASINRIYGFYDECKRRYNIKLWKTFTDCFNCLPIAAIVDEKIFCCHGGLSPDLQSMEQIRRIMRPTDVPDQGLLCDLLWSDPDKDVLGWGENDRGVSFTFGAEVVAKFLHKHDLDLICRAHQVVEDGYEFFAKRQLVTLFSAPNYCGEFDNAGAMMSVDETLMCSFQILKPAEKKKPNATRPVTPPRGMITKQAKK

Sequence of purified recombinant PPP1CC2 (P36873 other isoform, or with tags, fused parts or gaps): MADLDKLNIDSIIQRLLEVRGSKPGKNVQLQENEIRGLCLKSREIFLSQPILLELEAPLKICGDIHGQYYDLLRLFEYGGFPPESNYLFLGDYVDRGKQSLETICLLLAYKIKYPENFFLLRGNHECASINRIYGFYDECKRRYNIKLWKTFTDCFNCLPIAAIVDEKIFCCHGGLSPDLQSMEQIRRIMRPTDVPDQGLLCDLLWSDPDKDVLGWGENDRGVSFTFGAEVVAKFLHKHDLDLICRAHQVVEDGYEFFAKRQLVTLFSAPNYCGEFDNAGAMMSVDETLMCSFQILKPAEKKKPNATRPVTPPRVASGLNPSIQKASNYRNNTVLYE

B1: His-PPP1R2P3 (natural protein, human, UniProt Q6NXS1 1-205, looked up)
chain: MAASTASHRPIKGILKNKTSTTSSMVASAEQPRRSVDEELSKKSQKWDEINILATYHPADKGYGLMKIDEPSPPYHSMMGDDEDACRDTETTEAMAPDILAKKLAAAEGLEPKYRIQEQESSGEEDSDLSPEEREKKRQFEMRRKLHYNEGLNIKLARQLISKDLHDDDEDEEMLETADGESMNTEESNQGSTPSDQQQNKLRSS
[1]
  IC50 of inhibition of PPP1CC2 in the phosphorylase phosphatase assay ([32P]phosphorylase a as substrate): 0.09 nM
[2]
  IC50 of inhibition of PPP1CC1 in the phosphorylase phosphatase assay ([32P]phosphorylase a as substrate): 0.73 nM
